Test results published in patent publication US20230192839A1 (published 2023).

What was measured:
human CD33 antigen [1] = target: T1, human CD33 antigen (human, UniProt P20138 18-259, limits assumed); assay: SPR (Biacore T200), 37 C, scFv-Fc, 0 uM MTX
T1 construct: whole entry named; also called Siglec-3
Procedure: (§1) All binding kinetics analysis was performed on label-free Biacore surface plasmon biosensors (Biacore T200™ from GE Life Sciences) at 37° C. in 10 mM Hepes pH 7.4, 150 mM NaCl, 0.05% Tween-20 (HBST+), with or without 10 µM MTX. The Biacore data were processed in Biacore T200 Evaluation Software, and the data were double-referenced (Myszka, 1999, J Mol Recognit 12(5):279-284) and fit globally to a simple Langmuir with mass transport model to determine the equilibrium dissociation constant, KD, from the ratio of the kinetic rate constants (KD = koff/kₒₙ). In some cases the binding of antigen was very low (or not detectable) in the presence of 10 µM MTX and as a result kinetic rate constants could not be accurately determined. In these cases, a KD (or KD limit) was estimated based on the binding response at the highest analyte concentration tested or based on the typical limit of detection for a Biacore T200.

human CD33 antigen [2] = target: T1, human CD33 antigen; assay: SPR (Biacore T200), 37 C, scFv-Fc, 10 uM MTX
Procedure: as §1
“*”: For interactions where kₒₙ and koff are reported, the KD was calculated using koff/kₒₙ.

human CD33 antigen [3] = target: T1, human CD33 antigen; assay: SPR (Biacore T200), 37 C; KD at 10 uM MTX / KD at 0 uM MTX
Procedure: as §1

T1 sequence (P20138 18-259 limits assumed): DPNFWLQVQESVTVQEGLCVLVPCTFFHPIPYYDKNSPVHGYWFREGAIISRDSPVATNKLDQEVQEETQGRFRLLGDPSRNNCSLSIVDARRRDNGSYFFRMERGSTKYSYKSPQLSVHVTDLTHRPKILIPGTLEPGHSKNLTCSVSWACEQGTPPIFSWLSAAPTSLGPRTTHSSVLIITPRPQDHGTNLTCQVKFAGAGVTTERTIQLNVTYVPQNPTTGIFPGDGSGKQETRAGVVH

Kd (human CD33 antigen [1]) [nM] | koff (human CD33 antigen [1]) [s⁻¹] | kon (human CD33 antigen [1]) [M⁻¹ s⁻¹] | Kd (human CD33 antigen [2]) [nM] | koff (human CD33 antigen [2]) [s⁻¹] | kon (human CD33 antigen [2]) [M⁻¹ s⁻¹] | Ratio: KD with MTX / KD without MTX (human CD33 antigen [3]) | Binder
25 | 0.0021 | 83000 | 298 | 0.013 | 45000 | 12 | P04_C05 scFv-Fc fusion (scFv, V domains shown, Tested as scFv-Fc fusion) VH: QVQLVESGGGLVQAGGSLRLSCAASRRSSRSWAMHWVRQAPGKGLEWVAVISYDGRLKYYADSVKGRFTISRDNAEYLVYLQMNSLRAEDTAVYYCAAGLPWTDYWGQGTLVTVSS VL: QSVLTQPPSASGTPGQRVTISCSGSNSNIGSNYVSWYQQLPGTAPKLLIYSNNQRPSGVPDRFSGSKSGTSASLAISGLRSEDEADYYCAAWDDRLSVVFGTGTKLTVL
100 | 0.0061 | 61000 | 705 | 0.062 | 88000 | 7.1 | P02_D08 scFv-Fc fusion (scFv, V domains shown, Tested as scFv-Fc fusion) VH: QVQLVESGGGLVQAGGSLRLSCAASRRSSRSWAMHWVRQAPGKGLEWVAVISYDGRLKYYADSVKGRFTISRDNAEYLVYLQMNSLRAEDTAVYYCAAERGDGLDGNVGLDIWGQGTLVTVSS VL: DIQMTQSPSSLSASVGDRVTITCRASQSISKYLNWYQQKPGKAPKLLIYGASTLQSGVPSRFSGSGSGTDFTLTISSLQPEDFATYYCQQSYSSGTFGQGTKVEIK
72 | 0.0045 | 63000 | 547 | 0.051 | 94000 | 7.6 | P08_C08 scFv-Fc fusion (scFv, V domains shown, Tested as scFv-Fc fusion) VH: QVQLVESGGGLVQAGGSLRLSCAASRRSSRSWAMHWVRQAPGKGLEWVAVISYDGRLKYYADSVKGRFTISRDNAEYLVYLQMNSLRAEDTAVYYCAAEGSGSTDGSGAIDVWGQGTLVTVSS VL: DIQMTQSPSSLSASVGDRVTITCRASQSIGSYLNWYQQKPGKAPKLLIYAASSLQSGVPSRFSGSGSGTDFTLTISSLQPEDFATYYCQQSYSSGSFGQGTKVEIK
523 | 0.044 | 84000 | – | – | – | > 17.3 | P02_A10 scFv-Fc fusion (scFv, V domains shown, Tested as scFv-Fc fusion) VH: QVQLVESGGGLVQAGGSLRLSCAASRRSSRSWAMHWVRQAPGKGLEWVAVISYDGRLKYYADSVKGRFTISRDNAEYLVYLQMNSLRAEDTAVYYCAAESEWDTGGFDVWGQGTLVTVSS VL: DIQMTQSPSSLSASVGDRVTITCRASQSIGSYLNWYQQKPGKAPKLLIYSSSNLQSGVPSRFSGSGSGTDFTLTISSLQPEDFATYYCQQSYTSGTFGQGTKVEIK
213 | 0.02 | 92000 | 221 | 0.025 | 110000 | 1 | P02_C02 scFv-Fc fusion (scFv, V domains shown, Tested as scFv-Fc fusion) VH: QVQLVESGGGLVQAGGSLRLSCAASRRSSRSWAMHWVRQAPGKGLEWVAVISYDGRLKYYADSVKGRFTISRDNAEYLVYLQMNSLRAEDTAVYYCAAEGGMGLDPWGQGTLVTVSS VL: DIQMTQSPSSLSASVGDRVTITCRASQTISSYLNWYQQKPGKAPKLLIYAASNLHSGVPSRFSGSGSGTDFTLTISSLQPEDFATYYCQQSYSSGTFGQGTKVEIK
12 | 0.0018 | 160000 | 205 | 0.0089 | 44000 | 17.7 | P04_C09 scFv-Fc fusion (scFv, V domains shown, Tested as scFv-Fc fusion) VH: QVQLVESGGGLVQAGGSLRLSCAASRRSSRSWAMHWVRQAPGKGLEWVAVISYDGRLKYYADSVKGRFTISRDNAEYLVYLQMNSLRAEDTAVYYCAAEANESDSGGIDVWGQGTLVTVSS VL: DIQMTQSPSSLSASVGDRVTITCRASQTIGGYLNWYQQKPGKAPKLLIYAASSLQSGVPSRFSGSGSGTDFTLTISSLQPEDFATYYCQQGYSSGAFGQGTKVEIK
19 | 0.0026 | 140000 | 1.6 | 0.0006 | 390000 | 0.1 | P01_B02 scFv-Fc fusion (scFv, V domains shown, Tested as scFv-Fc fusion) VH: QVQLVESGGGLVQAGGSLRLSCAASRRSSRSWAMHWVRQAPGKGLEWVAVISYDGRLKYYADSVKGRFTISRDNAEYLVYLQMNSLRAEDTAVYYCAAADWYSGGGDALDIWGQGTLVTVSS VL: DIQMTQSPSSLSASVGDRVTITCRASQTIYNYLNWYQQKPGKAPKLLIYGASNLQSGVPSRFSGSGSGTDFTLTISSLQPEDFATYYCQQTYSSPTFGQGTKVEIK
366 | 0.026 | 72000 | – | – | – | > 43 | P03_H04 scFv-Fc fusion (scFv, V domains shown, Tested as scFv-Fc fusion) VH: QVQLVESGGGLVQAGGSLRLSCAASRRSSRSWAMHWVRQAPGKGLEWVAVISYDGRLKYYADSVKGRFTISRDNAEYLVYLQMNSLRAEDTAVYYCAADPHDGYGGGPGFDYWGQGTLVTVSS VL: QSVLTQPPSASGTPGQRVTISCSGSSSNIGSNYVYWYQQLPGTAPKLLIYRSNQRPSGVPDRFSGSKSGTSASLAISGLRSEDEADYYCAAWDDTLSAVVFGTGTKLTVL
92 | 0.011 | 120000 | 1170 | 0.087 | 75000 | 12.7 | P16_E06 scFv-Fc fusion (scFv, V domains shown, Tested as scFv-Fc fusion) VH: QVQLVESGGGLVQAGGSLRLSCAASRRSSRSWAMHWVRQAPGKGLEWVAVISYDGRLKYYADSVKGRFTISRDNAEYLVYLQMNSLRAEDTAVYYCAAEGGDYPGTSDGGLDIWGQGTLVTVSS VL: DIQMTQSPSSLSASVGDRVTITCRASQSISNYLNWYQQKPGKAPKLLIYGASSLQSGVPSRFSGSGSGTDFTLTISSLQPEDFATYYCQQSYSAGTFGQGTKVEIK
132 | 0.0094 | 71000 | – | – | – | > 83 | P03_G12 scFv-Fc fusion (scFv, V domains shown, Tested as scFv-Fc fusion) VH: QVQLVESGGGLVQAGGSLRLSCAASRRSSRSWAMHWVRQAPGKGLEWVAVISYDGRLKYYADSVKGRFTISRDNAEYLVYLQMNSLRAEDTAVYYCAADPTEGWSYLDYWGQGTLVTVSS VL: DIQMTQSPSSLSASVGDRVTITCRASQGISSYLNWYQQKPGKAPKLLIYGASRLQSGVPSRFSGSGSGTDFTLTISSLQPEDFATYYCQQGYSSGTFGQGTKVEIK
31 | 0.0029 | 95000 | 144 | 0.025 | 170000 | 4.7 | P07_C04 scFv-Fc fusion (scFv, V domains shown, Tested as scFv-Fc fusion) VH: QVQLVESGGGLVQAGGSLRLSCAASRRSSRSWAMHWVRQAPGKGLEWVAVISYDGRLKYYADSVKGRFTISRDNAEYLVYLQMNSLRAEDTAVYYCAAEPDGEGTNGGLDIWGQGTLVTVSS VL: DIQMTQSPSSLSASVGDRVTITCRASQNISRYLNWYQQKPGKAPKLLIYSASSLQTGVPSRFSGSGSGTDFTLTISSLQPEDFATYYCQQSYSSGAFGQGTKVEIK
456 | 0.018 | 40000 | – | – | – | > 20.4 | P02_D09 scFv-Fc fusion (scFv, V domains shown, Tested as scFv-Fc fusion) VH: QVQLVESGGGLVQAGGSLRLSCAASRRSSRSWAMHWVRQAPGKGLEWVAVISYDGRLKYYADSVKGRFTISRDNAEYLVYLQMNSLRAEDTAVYYCAAEEGDGGFFDYWGQGTLVTVSS VL: QSVLTQPPSASGTPGQRVTISCSGSSSNIGSNYVNWYQQLPGTAPKLLIYRNNERPSGVPDRFSGSKSGTSASLAISGLRSEDEADYYCAAWDGSLSGRGVFGTGTKLTVL
170 | 0.023 | 140000 | – | – | – | > 2 | P02_B03 scFv-Fc fusion (scFv, V domains shown, Tested as scFv-Fc fusion) VH: QVQLVESGGGLVQAGGSLRLSCAASRRSSRSWAMHWVRQAPGKGLEWVAVISYDGRLKYYADSVKGRFTISRDNAEYLVYLQMNSLRAEDTAVYYCAADQDVGSVGNYYGNGMDVWGQGTLVTVSS VL: not shown
143 | 0.01 | 71000 | – | – | – | > 92.5 | P01_F05 scFv-Fc fusion (scFv, V domains shown, Tested as scFv-Fc fusion) VH: QVQLVESGGGLVQAGGSLRLSCAASRRSSRSWAMHWVRQAPGKGLEWVAVISYDGRLKYYADSVKGRFTISRDNAEYLVYLQMNSLRAEDTAVYYCAAGPDRWAGYDAFDVWGQGTLVTVSS VL: DIQMTQSPSSLSASVGDRVTITCRASQTINTHLNWYQQKPGKAPKLLIYGASNLQGGVPSRFSGSGSGTDFTLTISSLQPEDFATYYCQQSYSTPLTFGQGTKVEIK
86 | 0.0066 | 76000 | 44.7 | 0.0045 | 100000 | 0.5 | P01_C05 scFv-Fc fusion (scFv, V domains shown, Tested as scFv-Fc fusion) VH: QVQLVESGGGLVQAGGSLRLSCAASRRSSRSWAMHWVRQAPGKGLEWVAVISYDGRLKYYADSVKGRFTISRDNAEYLVYLQMNSLRAEDTAVYYCAAEQWGTNDGPDGGMDYWGQGTLVTVSS VL: DIQMTQSPSSLSASVGDRVTITCRASQTIGSHLNWYQQKPGKAPKLLIYGTSNLQSGVPSRFSGSGSGTDFTLTISSLQPEDFATYYCQQSYSSPLTFGQGTKVEIK
211 | 0.01 | 47000 | – | – | – | > 3.4 | P02_E08 scFv-Fc fusion (scFv, V domains shown, Tested as scFv-Fc fusion) VH: QVQLVESGGGLVQAGGSLRLSCAASRRSSRSWAMHWVRQAPGKGLEWVAVISYDGRLKYYADSVKGRFTISRDNAEYLVYLQMNSLRAEDTAVYYCAASDYDGGGLFDLWGQGTLVTVSS VL: QSVLTQPPSASGTPGQRVTISCSGSNSNIGDNYVHWYQQLPGTAPKLLIYMNNQRPSGVPDRFSGSKSGTSASLAISGLRSEDEADYYCATWDDSLSGVVFGTGTKLTVL
